From patent publication US20020142457A1, “Cell having the potentiality of differentiation into cardiomyocytes” (priority 1999, published 2002)
Ends that are not written are not given here.

B1: FGF-8: fibroblast growth factor 8, cytokine (protein, UniProt P55075 23-233, looked up)
Fibroblast growth factor 8: QEGPGRGPALGRELASLFRAGREPQGVSQQHVREQSLVTDQLSRRLIRTYQLYSRTSGKHVQVLANKRINAMAEDGDPFAKLIVETDTFGSRVRVRGAETGLYICMNKKGKLIAKSNGKGKDCVFTEIVLENNYTALQNAKYEGWYMAFTRKGRPRKGSKTRQHQREVHFMKRLPRGHHTTEQSLRFEFLNYPPFTRSLRGSQRTWAPEPR
B2: midkine: cytokine, amino acid sequence SEQ ID NO:68 (protein, listed as Homo sapiens)
chain: MQHRGFLLLTLLALLALTSAVAKKKDKVKKGGPGSECAEWAWGPCTPSSKDCGVGFREGTCGAQTQRIRCRVPCNWKKEFGADCKYKFENWGACDGGTGTKVRQGTLKKARYNAQCQETIRVTKPCTPKTKAKAKAKKGKGKD
modifications: CDS (1)..(432)
B3: BMP4: bone morphogenic protein 4, cytokine (protein, UniProt P12644 293-408, looked up)
Bone morphogenetic protein 4: SPKHHSQRARKKNKNCRRHSLYVDFSDVGWNDWIVAPPGYQAFYCHGDCPFPLADHLNSTNHAIVQTLVNSVNSSIPKACCVPTELSAISMLYLDEYDKVVLKNYQEMVVEGCGCR

Columns and labels:
[1] = tested on: bone marrow cell (BMSC-MesP1); experiment: Differentiation of BMSC-MesP1 with cytokines, phase contrast microscope; format: cell-based, mouse; conditions: BMSC-MesP1, 5-aza-C 3 μM; cytokine 10 ng/ml; four weeks
Experimental: A mouse bone marrow-derived pluripotent stem cell (BMSC-MesP1) having the potential to differentiate into cardiomyocytes in which the MesP1 gene was forced-expressed was obtained using a retrovirus vector in the same manner as in Example 6, and then the differentiation was induced to examine efficiency of differentiation into cardiomyocytes.
The bone marrow cell (BMSC-MesP1) having the potential to differentiate into cardiomyocytes in which MesP1 was forced expressed was plated into a 60-mm culture dish in a density of 2×10^4 cells/ml and cultured at 33° C. in a 5% CO2-incubator. On the next day, 5-aza-C was added to the culture medium to give a final concentration of 3 μM, followed by culturing under five different conditions, namely (i) addition of FGF-8 to give a final concentration of 10 ng/ml (culture dish N), (ii) addition of ET-1 to give a final concentration of 10 ng/ml (culture dish P), (iii) addition of Midkine to give a final concentration of 10 ng/ml (culture dish Q), (iv) addition of BMP4 to give a final concentration of 10 ng/ml (culture dish R), and (v) no addition (culture dish S).
On the next day, the medium was exchanged with a fresh medium in order to eliminate 5-aza-C from the medium, and then the culturing was continued by adding FGF-8 to the culture dish N to give a final concentration of 10 ng/ml, ET-1 to the culture dish P to give a final concentration of 10 ng/ml, Midkine to the culture dish Q to give a final concentration of 10 ng/ml and BMP4 to the culture dish R to give a final concentration of 10 ng/ml. Two days and 4 days thereafter, the medium exchange and addition of FGF-8, ET-1, Midkine or BMP4 were carried out similarly.
Four weeks after the addition of 5-aza-C, morphology of the cells was observed under a phase contrast microscope. As a result, the number of myotube-like cells was not changed greatly by the forced expression of MesP1. In addition, about 50% of the cells became myotube-like cells in the culture dish to which FGF-8, ET-1, Midkine or BMP4 had been added.

[2] = tested on: mouse bone marrow-derived pluripotent stem cells (BMSC); experiment: Quantitative PCR of genes expressed in myotubes from BMSC; format: cell-based; conditions: with 5-aza-C 3 μM, cytokine 10 ng/ml
Experimental: RNAs were collected from the myotubes thus obtained. And genes expressed in the myotubes were analyzed with quantitative PCR analysis using the synthetic oligonucleotides represented by SEQ ID NOS:71 to 78. As a result, PDGF or retinoic acid promoted the expression of MyoD and fTnI genes relating to a skeletal muscle but not cTnI or ANP specifically relating to a myocardium. Next, mouse bone marrow-derived pluripotent stem cells (BMSC) having the potential to differentiate into cardiomyocytes were inoculated in a 60-mm culture dish at a density of 2×10^4 cells/ml and cultured using an incubator at 33° C. under 5% of CO2.
RNAs were collected from the myotubes thus obtained. And genes expressed in the myotubes were analyzed with quantitative PCR using the synthetic oligonucleotides represented by SEQ ID NOS:71 to 78. As a result, the FGF-8, ET-1, midkine and BMP4 each individually promoted the expression of cTnI and ANP gene which are myocardium-specific genes.

[3] = tested on: Nkx2.5/Csx and GATA4 co-forced expressing bone marrow cells (BMSC-Nkx2.5-GATA4); experiment: Differentiation of BMSC-Nkx2.5-GATA4 with cytokines, phase-contrast microscope; format: cell-based, mouse; conditions: cytokine 10 ng/ml, four weeks; for cells differentiated into myotubes: BMSC-Nkx2.5-GATA4, 5-aza-C 3 μM in all dishes; for beating cardiomyocytes: BMSC-Nkx2.5-GATA4, 5-aza-C 3 μM
Experimental: The Nkx2.5/Csx and GATA4 co-forced expressing bone marrow cells (BMSC-Nkx2.5-GATA4) having the potential to differentiate into cardiomyocytes were plated into a 60-mm culture dish at a density of 2×10^4 cells/ml and cultured at 33° C. in a 5% CO2-incubator.
On the next day, 5-aza-C was added to the culture medium to give a final concentration of 3 μM. Furthermore, 5 treatments differing from each other were carried out by adding FGF-8 to give a final concentration of 10 ng/ml (culture dish I); adding ET-1 to give a final concentration of 10 ng/ml (culture dish J); adding midkine to give a final concentration of 10 ng/ml (culture dish K); adding BMP4 to give a final concentration of 10 ng/ml (culture dish L); and adding nothing (culture dish M), followed by culturing.
On the next day, the medium was replaced with a fresh medium to eliminate 5-aza-C. Then, FGF-8 was added to the culture dish I to give a final concentration of 10 ng/ml; ET-1 was added to the culture dish J to give a final concentration of 10 ng/ml; midkine was added to the culture dish K to give a final concentration of 10 ng/ml; and BMP4 was added to the culture dish L to give a final concentration of 10 ng/ml, followed by culturing. Two and four days thereafter, furthermore, the medium was replaced, and the FGF-8, ET-1, midkine or BMP4 was added.
As a result, about 30% of the cells in the culture dish containing 5-aza-C alone were converted into myotubes, while about 50% of the cells in the culture dishes containing FGF-8, ET-1, midkine or BMP4 differentiated into myotubes respectively. On the other hand, the addition of FGF-8, ET-1, midkine or BMP4 caused no increase in beating cardiomyocytes.

Molecule	cells became myotube-like cells [1]	expression of cTnI and ANP gene (myocardium-specific genes) [2]	cells differentiated into myotubes [3]	beating cardiomyocytes [3]
ET-1: endothelin 1, cytokine (CSCSSLMDKECVYFCHLDIIW; ends and bridges not checked; cysteine pairing not given here; UniProt P05305 53-73, looked up)	about 50%	promoted	about 50%	no increase
B1	about 50%	promoted	about 50%	no increase
B2	about 50%	promoted	about 50%	no increase
B3	about 50%	promoted	about 50%	no increase
